The values that follow come from US20050064507A1, “Determining kinase specificity” (priority 2003, published 2005).

In the assay the target is T1, PKC-theta (Homo sapiens, UniProt Q04759).
T1 construct: His-tag; made in house; host or cells: baculovirus-infected Sf9 cells
Kind of assay: In vitro kinase assay: peptide phosphorylation by PKC-theta. Format: biochemical. Put shortly: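 Recombinant human PKC-theta, expressed in baculovirus-infected Sf9 cells and purified on a nickel chelating column, was incubated with biotinylated peptides, 100 μM ATP containing ^32P-gamma ATP, and PKC buffer with CaCl2, MgCl2, phosphatidyl serine and PMA at 30° C. Reactions were stopped with ATP/EDTA. Peptides were captured on streptavidin-coated plates, and phosphorylation was normalized to the best substrate.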

T1 sequence (Q04759 whole entry): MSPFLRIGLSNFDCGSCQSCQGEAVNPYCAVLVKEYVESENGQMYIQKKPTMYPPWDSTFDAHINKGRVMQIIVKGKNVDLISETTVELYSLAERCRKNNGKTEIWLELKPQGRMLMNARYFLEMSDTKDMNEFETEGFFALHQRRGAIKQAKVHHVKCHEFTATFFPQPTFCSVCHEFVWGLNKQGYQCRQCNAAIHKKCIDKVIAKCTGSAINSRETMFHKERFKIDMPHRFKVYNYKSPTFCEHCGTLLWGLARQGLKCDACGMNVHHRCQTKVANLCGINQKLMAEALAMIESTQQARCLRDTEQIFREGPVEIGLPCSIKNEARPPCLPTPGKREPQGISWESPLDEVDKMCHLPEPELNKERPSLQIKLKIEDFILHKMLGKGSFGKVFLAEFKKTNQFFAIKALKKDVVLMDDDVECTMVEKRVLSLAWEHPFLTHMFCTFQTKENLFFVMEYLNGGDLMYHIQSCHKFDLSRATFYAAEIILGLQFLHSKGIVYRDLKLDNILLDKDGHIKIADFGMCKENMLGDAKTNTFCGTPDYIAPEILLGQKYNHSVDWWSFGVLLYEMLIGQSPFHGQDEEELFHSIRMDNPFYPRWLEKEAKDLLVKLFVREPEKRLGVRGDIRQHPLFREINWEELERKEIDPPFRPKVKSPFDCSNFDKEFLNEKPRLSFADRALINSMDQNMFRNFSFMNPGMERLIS

As for “140 (TELEGGFSRQRKRKLSFRRR) [compound 140]”, the “phosphorylation by PKC theta” value runs as follows: (peptide concentration 1 uM) 25; (peptide concentration 10 uM) 35.

For “141 (VTDSQKRREILSRRPSYRKI) [compound 141]”, the “phosphorylation by PKC theta” value by setting is: (peptide concentration 1 uM) 29; (peptide concentration 10 uM) 28.

With “142 (ERHVAQKKSRLRRRASQLKI) [compound 142]”, the “phosphorylation by PKC theta” value worked out at 28 (peptide concentration 1 uM) and 37 (peptide concentration 10 uM).

As for “143 (VRYTPYTISPYNRKGSFRKQ) [compound 143]”, the “phosphorylation by PKC theta” value (peptide concentration 1 uM) was found to be 25 and the “phosphorylation by PKC theta” value (peptide concentration 10 uM) came out at 27.

With “144 (LSSMFGTLPRKSRKGSVRKQ) [compound 144]”, the “phosphorylation by PKC theta” value (peptide concentration 1 uM) is recorded as 35 and the “phosphorylation by PKC theta” value (peptide concentration 10 uM) is recorded as 22.

With “145 (ISDFGLAKKLAVGRHSFSRR) [compound 145]”, the “phosphorylation by PKC theta” value (peptide concentration 1 uM) was found to be 27 and the “phosphorylation by PKC theta” value (peptide concentration 10 uM) came to 25.

On to “146 (QAQRQIKRGAPPRRSSIRNA) [compound 146]”, for which the “phosphorylation by PKC theta” value reads like this: (peptide concentration 1 uM) 33; (peptide concentration 10 uM) 34.

For the substance “147 (RDIRQSPKRGFLRSASLGRR) [compound 147]”, the “phosphorylation by PKC theta” value (peptide concentration 1 uM) worked out at 20 and the “phosphorylation by PKC theta” value (peptide concentration 10 uM) is listed as 69.

As to “154 (KKFFTQGWAGWRKKTSFRKP) [compound 154]”, the “phosphorylation by PKC theta” value is, setting by setting: (peptide concentration 1 uM) 34; (peptide concentration 10 uM) 21.

“155 (RWDKRRWRKIPKRPGSVHRT) [compound 155]”: the “phosphorylation by PKC theta” value by setting is: (peptide concentration 1 uM) 23; (peptide concentration 10 uM) 26.

Regarding “156 (SAQITIPKDGQKRKKSLRKK) [compound 156]”, the “phosphorylation by PKC theta” value (peptide concentration 1 uM) was 18 and the “phosphorylation by PKC theta” value (peptide concentration 10 uM) is on record as 23.

For “157 (PSPSNETPKKKKKRFSFKKS) [compound 157]”, the “phosphorylation by PKC theta” value came to 20 (peptide concentration 1 uM) and 23 (peptide concentration 10 uM).

Regarding “158 (VQMTWSYPDEKNKRASVRRR) [compound 158]”, the “phosphorylation by PKC theta” value runs as follows: (peptide concentration 1 uM) 19; (peptide concentration 10 uM) 23.

In the case of “159 (LYARLARAYRRSQRASFKRA) [compound 159]”, the “phosphorylation by PKC theta” value is, setting by setting: (peptide concentration 1 uM) 21; (peptide concentration 10 uM) 17.

Consider “160 (PFEVVWYKDKRQLRSSKKYK) [compound 160]”, for which the “phosphorylation by PKC theta” value (peptide concentration 1 uM) came to 19 and the “phosphorylation by PKC theta” value (peptide concentration 10 uM) was 25.

With “161 (KYKAFIRIPIPTRRHTFRRQ) [compound 161]”, the “phosphorylation by PKC theta” value is 19 (peptide concentration 1 uM) and 23 (peptide concentration 10 uM).

Consider “162 (KKKFSFKKPFKLSGLSFKRN) [compound 162]”, for which the “phosphorylation by PKC theta” value is, setting by setting: (peptide concentration 1 uM) 14; (peptide concentration 10 uM) 13.

“163 (PPRTPGWHQLQPRRVSFRGE) [compound 163]”: the “phosphorylation by PKC theta” value (peptide concentration 1 uM) amounted to 14 and the “phosphorylation by PKC theta” value (peptide concentration 10 uM) worked out at 11.

For the substance “164 (TEGKMARVAWKGKRRSKARK) [compound 164]”, the “phosphorylation by PKC theta” value (peptide concentration 1 uM) was 24 and the “phosphorylation by PKC theta” value (peptide concentration 10 uM) is 20.

In the case of “165 (TEEKSKKRKKKHRKNSRKHK) [compound 165]”, the “phosphorylation by PKC theta” value is listed as 16 (peptide concentration 1 uM) and 14 (peptide concentration 10 uM).

“166 (MAQIERGEARIQRRISIKKA) [compound 166]”: the “phosphorylation by PKC theta” value runs as follows: (peptide concentration 1 uM) 13; (peptide concentration 10 uM) 13.

In the case of “167 (GLPAPGEDKSIYRRGSRRWR) [compound 167]”, the “phosphorylation by PKC theta” value by setting is: (peptide concentration 1 uM) 12; (peptide concentration 10 uM) 14.
